For this data set, the system named is Escherichia coli TOP10. The experiment in a line: shrunken log2 fold change of peptide-encoding DNA abundance (4.5 h post-induction vs induction); higher = less antimicrobial activity (less host growth inhibition). Conditions: time post-induction: 4.5 h; library: site-saturation at positions 5, 18, 19, 20.
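Further: peptides expressed intracellularly from a pBAD plasmid library in pooled LB shake-flask culture, induced with 0.3% L-arabinose, DNA abundance read by NGS, three biological replicates, DESeq2 with apeglm shrinkage.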

Take RRIRPRPPRLPRPRPRPNDDPRP: the “shrunken log2 fold change” value was -0.188.
For RRIRPRPPRLPRPRPRPACGPRP the value was 0.839; for RRIRNRPPRLPRPRPRPVFWPRP, 0.219.
In the case of RRIRARPPRLPRPRPRPPYAPRP it was 0.251.
Take RRIRYRPPRLPRPRPRPHWDPRP: the “shrunken log2 fold change” value is -0.92.
In the case of RRIRVRPPRLPRPRPRPGVRPRP it was 0.188.
For RRIRQRPPRLPRPRPRPYSDPRP the value was -0.028; for RRIRPRPPRLPRPRPRPVDSPRP, -0.177.
In the case of RRIRPRPPRLPRPRPRPDSCPRP it was 0.0412.
As to RRIRGRPPRLPRPRPRPQIKPRP, the “shrunken log2 fold change” value is 0.324.
For RRIRHRPPRLPRPRPRPYPTPRP the value was -0.219.
For RRIRNRPPRLPRPRPRPRGAPRP the value was 0.601; for RRIRPRPPRLPRPRPRPRMYPRP, -0.128; for RRIRNRPPRLPRPRPRPTPYPRP, -0.243.
In the case of RRIRERPPRLPRPRPRPVKIPRP it was -0.181; in that of RRIRLRPPRLPRPRPRPSGKPRP, 0.19; in that of RRIRTRPPRLPRPRPRPIKCPRP, -0.234.
For RRIRYRPPRLPRPRPRPKLKPRP, the “shrunken log2 fold change” value is -0.0928.
For RRIRQRPPRLPRPRPRPQGCPRP the value was -0.0562; for RRIRDRPPRLPRPRPRPDQPPRP, -0.00151; for RRIRDRPPRLPRPRPRPYCCPRP, -0.151.
In the case of RRIRDRPPRLPRPRPRPWWTPRP it was -0.327; in that of RRIRWRPPRLPRPRPRPMCRPRP, -0.117; in that of RRIRKRPPRLPRPRPRPQNLPRP, 0.0263.
In the case of RRIRGRPPRLPRPRPRPIREPRP it was -0.0123; in that of RRIRSRPPRLPRPRPRPWKTPRP, -0.0527; in that of RRIRHRPPRLPRPRPRPEGCPRP, 0.0614.
Turning to RRIRCRPPRLPRPRPRPRFQPRP, the “shrunken log2 fold change” value came to 0.234.
As to RRIRPRPPRLPRPRPRPDTEPRP, the “shrunken log2 fold change” value was -0.48.
In the case of RRIRVRPPRLPRPRPRPHNCPRP it was -0.0364; in that of RRIRFRPPRLPRPRPRPHLCPRP, -0.0692.
In the case of RRIRARPPRLPRPRPRPQGRPRP it was 0.104.
On to RRIRGRPPRLPRPRPRPSDTPRP, for which the “shrunken log2 fold change” value was 0.116.
For RRIRGRPPRLPRPRPRPYHWPRP the value was -0.407.
Take RRIRTRPPRLPRPRPRPQEIPRP: the “shrunken log2 fold change” value was -0.187.
RRIRFRPPRLPRPRPRPTTWPRP: the “shrunken log2 fold change” value was determined as 0.0564.
On to RRIRERPPRLPRPRPRPPWAPRP, for which the “shrunken log2 fold change” value was 0.176.
In the case of RRIRHRPPRLPRPRPRPQCAPRP it was 0.191.
In the case of RRIRMRPPRLPRPRPRPQRGPRP it was 1.24; in that of RRIRNRPPRLPRPRPRPPVPPRP, 0.384; in that of RRIRNRPPRLPRPRPRPPIIPRP, -0.192.
With RRIRMRPPRLPRPRPRPGWQPRP, the “shrunken log2 fold change” value is -0.032.
For RRIRHRPPRLPRPRPRPHCLPRP the value was -0.777; for RRIRIRPPRLPRPRPRPQTDPRP, -0.232.
With RRIRTRPPRLPRPRPRPYRKPRP, the “shrunken log2 fold change” value is -0.0329.
For RRIRARPPRLPRPRPRPQVTPRP the value was 0.356.
On to RRIRFRPPRLPRPRPRPYHRPRP, for which the “shrunken log2 fold change” value came out at 0.045.
For RRIRMRPPRLPRPRPRPICGPRP the value was 0.237; for RRIRMRPPRLPRPRPRPMFRPRP, -0.0348.
In the case of RRIRYRPPRLPRPRPRPPTVPRP it was -0.146; in that of RRIRGRPPRLPRPRPRPYMMPRP, -0.232; in that of RRIRNRPPRLPRPRPRPECEPRP, -0.0156.
Turning to RRIRGRPPRLPRPRPRPSNFPRP, the “shrunken log2 fold change” value was 0.0228.
Turning to RRIRTRPPRLPRPRPRPHMYPRP, the “shrunken log2 fold change” value is -0.275.
For RRIRDRPPRLPRPRPRPPHWPRP the value was 0.322; for RRIRFRPPRLPRPRPRPPYPPRP, -0.0265; for RRIRHRPPRLPRPRPRPRMGPRP, -0.00555.
In the case of RRIRVRPPRLPRPRPRPPRQPRP it was 0.583; in that of RRIRWRPPRLPRPRPRPSVYPRP, 0.0378; in that of RRIRVRPPRLPRPRPRPRAGPRP, 0.488.
Regarding RRIRWRPPRLPRPRPRPTRKPRP, the “shrunken log2 fold change” value was -0.0294.
For RRIRTRPPRLPRPRPRPANHPRP the value was -0.179; for RRIRDRPPRLPRPRPRPRAAPRP, 0.609; for RRIRDRPPRLPRPRPRPRKHPRP, -0.134.
For RRIRWRPPRLPRPRPRPAIFPRP the value was 0.327.
In the case of RRIRQRPPRLPRPRPRPFKVPRP it was -0.00664.
For the sequence RRIRQRPPRLPRPRPRPDHTPRP, the “shrunken log2 fold change” value was -0.0589.
For RRIRIRPPRLPRPRPRPGYSPRP the value was -0.525; for RRIRHRPPRLPRPRPRPVYHPRP, -0.282; for RRIRMRPPRLPRPRPRPACSPRP, 0.551.
As to RRIRARPPRLPRPRPRPKHIPRP, the “shrunken log2 fold change” value was -0.219.
In the case of RRIRPRPPRLPRPRPRPDRTPRP it was -0.25; in that of RRIRRRPPRLPRPRPRPNKAPRP, 0.158; in that of RRIRRRPPRLPRPRPRPCVQPRP, 0.171.
As to RRIRWRPPRLPRPRPRPMWIPRP, the “shrunken log2 fold change” value came to 0.135.
For RRIRRRPPRLPRPRPRPVVDPRP the value was 0.372; for RRIRLRPPRLPRPRPRPPIGPRP, 0.142; for RRIRFRPPRLPRPRPRPWVQPRP, -0.116.
In the case of RRIRSRPPRLPRPRPRPKMNPRP it was -0.163; in that of RRIRCRPPRLPRPRPRPQRLPRP, 0.44; in that of RRIRHRPPRLPRPRPRPCAIPRP, -0.303.
For RRIRDRPPRLPRPRPRPVKQPRP the value was -0.0215; for RRIRKRPPRLPRPRPRPEPAPRP, 1.45; for RRIRYRPPRLPRPRPRPFFKPRP, -0.518.
In the case of RRIRMRPPRLPRPRPRPQHIPRP, the “shrunken log2 fold change” value is -0.103.
Consider RRIRDRPPRLPRPRPRPLYNPRP, for which the “shrunken log2 fold change” value was -0.321.
For RRIRFRPPRLPRPRPRPGPFPRP the value was 0.14; for RRIRFRPPRLPRPRPRPDIYPRP, -0.0949.
For RRIRNRPPRLPRPRPRPGKSPRP the value was -0.0101; for RRIRPRPPRLPRPRPRPLEEPRP, 0.215.
In the case of RRIRGRPPRLPRPRPRPLDDPRP it was 1.09.
Regarding RRIRDRPPRLPRPRPRPIMTPRP, the “shrunken log2 fold change” value turned out to be 0.107.
For RRIRWRPPRLPRPRPRPFPMPRP the value was -0.111; for RRIRWRPPRLPRPRPRPDDCPRP, -0.0829; for RRIRWRPPRLPRPRPRPAQSPRP, 0.135.
As for RRIRLRPPRLPRPRPRPCIEPRP, the “shrunken log2 fold change” value was -0.256.
Take RRIRWRPPRLPRPRPRPPPEPRP: the “shrunken log2 fold change” value is 0.822.
In the case of RRIRHRPPRLPRPRPRPETIPRP it was -0.0239; in that of RRIRERPPRLPRPRPRPDRTPRP, -0.0361.
In the case of RRIRFRPPRLPRPRPRPFTTPRP it was -0.445.
In the case of RRIRVRPPRLPRPRPRPSRHPRP it was -0.0783; in that of RRIRLRPPRLPRPRPRPRHSPRP, 0.0207.
In the case of RRIRQRPPRLPRPRPRPAWKPRP, the “shrunken log2 fold change” value was 0.0232.
For the sequence RRIRMRPPRLPRPRPRPQSNPRP, the “shrunken log2 fold change” value was found to be 0.0557.
In the case of RRIRPRPPRLPRPRPRPVEDPRP it was 0.0885; in that of RRIRQRPPRLPRPRPRPGNPPRP, -0.132; in that of RRIRLRPPRLPRPRPRPPSCPRP, 0.341.
RRIRNRPPRLPRPRPRPEEPPRP: the “shrunken log2 fold change” value amounted to 0.0512.
In the case of RRIRARPPRLPRPRPRPHWKPRP it was -0.00664; in that of RRIRWRPPRLPRPRPRPDEHPRP, 0.0519.
In the case of RRIRTRPPRLPRPRPRPPKSPRP it was 0.556; in that of RRIRQRPPRLPRPRPRPKQKPRP, -0.0585; in that of RRIRRRPPRLPRPRPRPCSAPRP, 0.34.
In the case of RRIRERPPRLPRPRPRPTLPPRP it was 0.123.
For RRIRNRPPRLPRPRPRPVEPPRP, the “shrunken log2 fold change” value came to 0.173.
For RRIRNRPPRLPRPRPRPGLWPRP the value was 0.737; for RRIRKRPPRLPRPRPRPTPLPRP, 0.848; for RRIRVRPPRLPRPRPRPCIYPRP, -0.533.
Take RRIRMRPPRLPRPRPRPVKCPRP: the “shrunken log2 fold change” value is -0.0525.
For RRIRNRPPRLPRPRPRPFVTPRP the value was -0.274.
In the case of RRIRERPPRLPRPRPRPDILPRP it was 0.0234; in that of RRIRHRPPRLPRPRPRPLSSPRP, 0.0305.
In the case of RRIRFRPPRLPRPRPRPCKRPRP it was 0.0187.
RRIRKRPPRLPRPRPRPLMEPRP: the “shrunken log2 fold change” value worked out at 0.124.
In the case of RRIRQRPPRLPRPRPRPSIIPRP it was -0.63.

Source of the values: the supplement of paper PMC9112550, “Optimization of the antimicrobial peptide Bac7 by deep mutational scanning” (BMC Biology, 2022).
